Test results taken from PMC8630071, “The NUCKS1-SKP2-p21/p27 axis controls S phase entry”.

T1: NUCKS1, dephosphorylated (UniProt Q9H1E3 1-243)
T1 sequence: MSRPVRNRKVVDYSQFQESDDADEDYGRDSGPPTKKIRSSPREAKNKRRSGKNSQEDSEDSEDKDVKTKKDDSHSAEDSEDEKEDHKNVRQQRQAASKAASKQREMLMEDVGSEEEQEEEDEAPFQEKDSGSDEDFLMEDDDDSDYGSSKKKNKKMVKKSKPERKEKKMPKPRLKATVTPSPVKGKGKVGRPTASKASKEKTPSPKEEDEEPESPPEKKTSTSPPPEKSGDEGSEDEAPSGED

B1: SKP2 promoter WT probe (dsDNA)
DNA 1: GCCGACCAGTCCCGCTCCCGCGGGGGGTTGTGGGTATCTCGAAGGCGGGTAAAGCTGCA
DNA 2: TGCAGCTTTACCCGCCTTCGAGATACCCACAACCCCCCGCGGGAGCGGGACTGGTCGGC
B2: SKP2 promoter mutant probe (no GC-box), unlabelled competitor (dsDNA)
DNA 1: GCCGACCAGTCCCGCTCCCGCGGGGGGTTGTGGGTATCTCGAAAAAAAATAAAGCTGCA
DNA 2: TGCAGCTTTATTTTTTTTCGAGATACCCACAACCCCCCGCGGGAGCGGGACTGGTCGGC

Assays:
NUCKS1, dephosphorylated [1] = target: T1, NUCKS1, dephosphorylated; assay: EMSA; lambda phosphatase treated; 10.24-2500 nM protein, 25 nM probe; text: almost 10-fold; 20 mM Tris-HCl pH 7.5, 100 mM KCl, 0.2% NP-40, 20% glycerol, 2 mM DTT, 50 ng (pure protein) or 1 ug (extract) salmon sperm DNA, 25 nM probe, 15 min at 37 C; native 6% PAGE; details: protein: recombinant; tags: His6; label: IRDye-800; blunt
NUCKS1, dephosphorylated [2] = target: T1, NUCKS1, dephosphorylated; assay: competition EMSA; 100x unlabelled competitor against labelled WT probe; not outcompeted; 20 mM Tris-HCl pH 7.5, 100 mM KCl, 0.2% NP-40, 20% glycerol, 2 mM DTT, 50 ng (pure protein) or 1 ug (extract) salmon sperm DNA, 25 nM probe, 15 min at 37 C; native 6% PAGE; details: protein: recombinant; tags: His6; blunt

Binder	binding signal (NUCKS1, dephosphorylated [1])	binding result (NUCKS1, dephosphorylated [2])
B1	~10 fold higher affinity than phosphorylated NUCKS1	
B2		no binding
